The source of these data is the DeepSol protein solubility set.

The data set can be described thus: soluble on expression in E. coli; label from the status in PepcDB or PDB records.
In the case of “MGSDKIHHHHHHMAERVLVPTQIGRGDRYYTYTELLAISRRFKQNPNELMVTWILRVYDQGGPALSLNSGELGLLGDLTHDAIFNYRCKALRGAGCQTLLSWLLQAWRQRWESSLHFEATELPFRPWTTMEEGIQLVRELGMIEWIYLDPEGPVDLAPEDVAFTQGLQRRLLTAAPSELRLSLVSLLVRGMTVLEAVMEIQTIADVGLLWRQSHPGRTKLMLGPNPTRKDLLGWLLSHGVPREQVDRQPTKVLLELYIKEAKRSRGHPNYGLNEEQPPPPPYSDQACGEEQPVRHD”, the “soluble on expression in E. coli” value is “not soluble”. Then “MGSDKIHHHHHHMTLKSRIGILAGKTAHFFLSKIGRGSTLPGKIALKCDKDILDTLAKDYDIVVVTGTNGKTLTTALTVGILKEAYGQVLTNPSGANMITGITSTFLTAKKSRNGKKIAVLEIDEASLPKITDYLKPSLFVFTNIFRDQMDRYGEIYTTYQMILDGAAKAPKATILANGDSPLFNAKTVVNPVRYYGFDTKKEAAHLAHYNTEGIVCPKCEYILQYKLNTYANLGDYICPNCGFHRPHLDYSLTQLTKISNTQAEFIIDGQDYKINVGGLYNIYNALAAVAVAEFLGVTPEQIKAGFDKSRAVFGRQETFKIGDKSCTLVLIKNPVGASQALEMIKLAPYPFTLSVLLNANYADGIDTSWIWDANFESILDMNIPQIFTGGVRHSEIARRLRVTGYNETKIEQAEKLEDILSMIEKQEADHAYILATYTAMLEFRELLASRHAVRKEMH”, with “not soluble”; and “QPAQSGAFLVDQSQLTQSSILIGHQGGQLSNPDYPELSVMNGVINGFGGRLFNEIRSRQGLAYSVYGVWSPRYDYDGQFIAGGSTRTEATVPFITAMKGEIKRLQTELITPAELAYAKDSILNSFVFNFEDPGQTLSRLMRYEYYGYPEDFIFQYQREVEATTIEDVQRVAQTYLKPEQLTVLVVGN”, with “not soluble”. For “WGTIPGQNFIYAHLNRVIKKYDLDMIYVSGPGHGGQVMVSNSYLDGTYSEVYPNVSRDLNGLKKLCKQFSFPGGISSHMAPETPGSINEGGELGYSLAHSFGAVFDNPDLITACVVGDGEAETGPLATSWQANKFLNPVTDGAVLPILHLNGYKISNPTVLSRIPKDELEKFFEGNGWKPYFVEGEDPETMHKLMAETLDIVTEEILNIQKNARENNDCSRPKWPMIVLRTPKGWTGPKFVDGVPNEGSFRAHQVPLAVDRYHTENLDQLEEWLKSYKPEELFDENYRLIPELEELTPKGNKRMAANLH”, the “soluble on expression in E. coli” value is reported as “not soluble”. Consider “MNKMLYGWLLAACCGLPPAFAGDSVDVLAQPALHGPQALRAVLQDVARADARLVAVGERGVVLLSDDNGATWRQATAVPVGVSLTAVQFIDARNGWAVGHAGVVLHSQDGGEHWSVQLDGKRAAALEVQAAEAAADERRLAAAQRLLADGADKPLLALNFTDARNGLVVGAYGVAMRTDDGGRSWQSEIGRLPNGRGLHLYALARQGNQVYIAGEQGLLLRSRDGGEHYEALHGPYDGSYFAATVLPDGRLLLGGLRGSLFASDDGGDSFQALANPTPASINGLRVAGGQLLLANQAGMLLRSGLGAFAAQPVAVSDGLPLTAATTAADGSIVAVGMAGARRLEPSSLEHHHHHH”, for which the “soluble on expression in E. coli” value is “not soluble”.

On to “MDWDLITERNIQLFIQLAGLAERPLATNMFWRQGQYETYLNYHNGRIHLCQILKQTFLDEELLFKALANWKPAAFQGIPQRLFLLRDGLAMSCSPPLSSSAELWLRLHHRQIKFLESQCVHG”, for which the “soluble on expression in E. coli” value is given as “not soluble”. Turning to “MPVFSINVNVKVPAEKQNEILKELSTVLGKLLNKPEQYMCIHFHEDQGILYAGTTEPAGFAVLKSIGGVGSAKQNNAISAVVFPIIEKHLGIPGNRLYIEFVNLGAADIAYNGQTFA”, the “soluble on expression in E. coli” value is given as “not soluble”. Take “MGSDKIHHHHHHMQSNRLTESSAEIHDMSLRIYQTPVQHLPEDLYVPPQAFAIWLEQFAGPLDFLLYLVKKNNVDLTRMPILPITEQYLAYISKLDTNHFELAGDYLLMASTLIAIKTELLLPMPEMPTDERDPKAELIERLEEYTQVKAASQRLDNLIRLERDVFLAMVSMPNQDIMNSELPSYSPTLLIDSLFKMQLQPDYQMHSIKVDAVPLADRIASISRQLSTDGARSFHELLDKAQGKIGVVVSFVAVLELIKRQLIGVVANNVDSGVSTATNADGSLSTHSDLLEKLTLEWLA”: the “soluble on expression in E. coli” value is “not soluble”. As for “MWEVIIMKTYIGKIHLKWCKNCNVPLLGRVCEVCGSKAEEVKLTPPGDPRLGFQYDMDFINKILEEEFGAKNVLNGKIILLNKIPGNEEAYEIIVDGEVKYLIYFDEDKEKWKVKLKLNGAKDLMEKGAYKKIIKIKNDVVEFLKNRKGSVLRPGIVEFTDDIEEKDDVIIVDENDRVVGVGLAVVSSEDIKNMEKGKVVKVRFFIKDNEDYKPGKIYDNLEEAFDLMVRANEGVIDNYERNAIGFIKNTYEKIKKPVMVAFSGGKDSLVTLILTLKALGKDIDVVFIDTGLEFEETLKNVEDVERHYGIKIIRLRGENFWEKVKEYGIPARDYRWCSEICKLEPLKKFIEENYEDDVLSFVGIRKYESFNRATKKRIHRNTYIKKQINALPIFHWSSLHVWIYLLREKAPYNKLYEKGFDRIGCFMCPAMEMGEMNKIKREFPKLWEKWENVLREYAEKHNLGEGWIKKGLWRWKHKRQ”, the “soluble on expression in E. coli” value was “soluble”. As to “MSLSKNVTYEGIYVENINVSNLNEKDLKEKLNEHYSDLLNNFKITFNYKDNFNETFSAKDLGFFFDINDLSNQVFSFGKNSNIFSNTIERLKLKSNPKYFQFKPESNSEVLSEKLSEISNKINKEKVEPTISFSNDSISATKEQIGYKLDLEKLTSEIVNDLNNSHDSLNCTINIPVEEIKPKLTQETVNNMVILGSYTTKLPSLTGGRTKNISNYLSKLNGTILMPGDIFSADKEGEDRTESNGYTYAPGYIGNKVVDILAGGICQGVTTLYNSVLYADLKIVERAPHSLPVTYAPIGRDATMASGVIDFKFQNNMNNPVIVQTYITSSGQVKSNIWGIKEDPGKEIVISVDQHGPKSSTTYKETYENGVLVKKEVLSKDKYNEGHHHHHH”, the “soluble on expression in E. coli” value was “soluble”. Turning to “MKTRDRILECSLLLFNEQGEPNVSTLEIANELGISPGNLYYHFHGKEPLVMALFERFQAELAPLLDPPEEVRLGAEDYWLFLHLIVERLAHYRFLFQDLSNLTGRLPRLARGIRTWLGALKRTLATLLARLKADRQLRSDAPALGQLVEQITLTLLFSLDYQRVLGSKGEVRTVVYQIMMLVAPHLRSEAQRSAESLAQRYLGPE”, the “soluble on expression in E. coli” value was “not soluble”. For the sequence “MGSDKIHHHHHHMSNTKKGLATAGYNDDLAKLEEIFLPNFFYKKMQYYFSSSGLISNDVLFVHYTSTESALDIIREKRVLMRNALHMPDRQEVQDGFNIMDGLLSNENNHWVEFRNRIEVVLPGVVDRVMKIYSDHSHGRNDGTYFLSVLEHDESEKELGRLSMWRAFCGQSQPVAMFLRLPALSAVSQVLRIFFNPVLYKGKGQQHLELAEVIKNVENHKSFLERLDPDLVTSAIVSMILINVLCVKHKVFKEEREWRCVYLPKCFTSETSARLIEPGVEEQVGASRNVYKMPLNAAIDPVLSDIDLSKIFDSLIIGPSKSPYATYEVFCDELKKIGVSDVESKVRVTEIPVR”, the “soluble on expression in E. coli” value is reported as “not soluble”. For “MSLKPEKPSDTELVFISNAETIRDYLLRLSVDELKLLAKYILQNVYIVFVQTDDFASSFRLFNVLNSRGLPLSNADLLKNALFESASTHNKKSEQIESAWSQIEDMVGVRRLDKFLTLHKLSEKKDRDRVLQKGFEAFIENLQQQFDGDAIAMSLMLVNSAKNYTKILENDFEHPSIRRKIASLSNLGVDEWIPPVMAFMNRMARTEDFNLDDFSQFITAFEKVYMHGWLKKQIKSQREMVCYSALVAINNDMPFDSVINQINQHADNSGFIAALDEDLYEPRPNQVNLIKAILLRLDMEQQDESVIKTYTGRITIEHILPQALVNEYWINRFQPQEHVYWLHKIGNLTLISGSKNSEAQHYDFIKKKSIYEKLNSKSSFDLTKDVCNSSEWGLAELKMRHEKMKTQLKKLWLVEGHHHHHH”, the “soluble on expression in E. coli” value is given as “not soluble”. Consider “MGSDKIHHHHHHMSGGDAMAKAVKQPAPDAEQIVLAIDIGGSHVKILTSAGGAERRDDSGPDLTPQQMIDKVKKLAEGLSYDVISMGYPGPVRHNKPVLDPKNLGKGWAGFDFAAQFGKPVKVVNDALMQAIGSYEGGRMLFLGLGTGLGAAMVFDNVGQPMELAHLPYRKGRSFEDYVGERGLEKRGKKKWRKYVFDVVTRLRAALQPDYVVIGGGNVDKLDALPAEARRGDNTRAFEGGFRLWRDKALIV”, for which the “soluble on expression in E. coli” value was “not soluble”. “MPRIRCERCARPASHCLCALIPSLPSRTRVLVLQHPSEVGHALNTAGLAVLGLCNAELRVGERFAEETWRVPGYRACLLFPGEQARALAEMAAEAAGEPLLLVVPDGTWRKARKLLHLNPALAALPRVSLAEGMASRYRLRKAPGEGALSTIEAIAAALDELEAPRTHEALLKPFDALIEGQIAAMGEDTYRRNHLSQERRRRLEHHHHHH”: the “soluble on expression in E. coli” value is given as “soluble”. Turning to “MPAGTRCVTQGEAEKNGMIPTGIFCDYQNGQEMYCYSEGKPDLVISDVWAYNTTPGVYSELRALVYNHGHGYAGKFSVAFFIDGSYVGEVEVNGLGANENTVARISYPHPCEGETDTFAAQVDYHNEVDEENENDNYHESPRIFQCSGGEMPNLEVVEAYIDYQDFCRALNYRNSSIVVVVANTGEQASPQTGGWIYIDGNSRGGFDIPSLQPGEETTISMNFPYMCEGSSDEIRVVVDSRNYVVESNENDNEYTFITDCIPMPSGTADLVVSYLETHVVEELLAGGLSYPLKSEINYTVENLGEDYSCNAEVGLFIDGVFQGQQYLPPLAPGDSITRTFIAKYDWERCSGISDTLTLKADVNNDVAESNENNNERSVTLYCIEYPLIKPDLTVEDVWIEGEGASNLDIVFTVKNIGLAASRATNAYVGVNYNPAGSTPIPPLNAGESVELRISGFTAQWQENTIEVCADSGNLVDEIPNEMNNCLTKTITIEDVGCYDGVRNRDEVGVDCGGYYCVPAALLRLKGDCSIRMTMAAGFQLEHHHHHH”, the “soluble on expression in E. coli” value is listed as “not soluble”. With “MGSDKIHHHHHHMSKYESEVVVDGFHYLEGPRWYKDALWFVDFYTKGVYRVNDESVAEKIVHVEQQPSGLGWLPDGRMLIVSMKDRKVLRLEDNGELVVHADIWDHCEGHANDMVVAPNGNAYVGNFGFDLMGGADHKQTGLVLVKPDGNSQIVAEGLAFPNGMVISADEKTLIVNELFGNKISQFDINADGTLGEKRDFANFGDLGDEPNLGARIENANILPDGLALDSEGAVWIADTLNQRAVRISEGGEILDIVNTAPDGIFAVALGGQNGKTLFMCAAPDWDEASRTAETKGRMLSTQVKVGHAGTP”, the “soluble on expression in E. coli” value is “not soluble”. Take “MNITKIISKTFDSRLKQIDLYASQASEIQHRVLSRLVNQAAQTEWGKKYDYASIRSYEDFRNRLPIQTYEEIKPYVERLRAGEQNLLWPSEIRWFAKSSGTTNDKSKFLPVSKEALEDIHYRGGKDAAALYFRINPDSHFFSGKGLILGGSHSPNLNSNHSLVGDLSAILIQNVNPLINFIRVPSKKIALMSEWETKIEAIANSTIPVNVTSLSGVPSWMLVLIKRILEKTGKQTLEEVWPNLEVFFHGGVAFTPYREQYKQVIHSKMMHYVETYNASEGYFGTQNDLSDPAMLLMIDYGIFYEFVPLEEVDKENPRAYCLEEVELNKNYAMVISTSCGLWRYMIGDTVKFTNKNPYKFVITGRTKHFINAFGEELIVDNAEKGLAKACAETGAQVCEYSAAPVFMDEHAKCRHQWLIEFAKMPDSVEKFAAILDATLKEVNSDYEAKRWKDIALQPLEVIVARPGLFHDWLARKGKLGGQHKVPRLSNTREYIESMLVLNNELEHHHHHH”: the “soluble on expression in E. coli” value is listed as “not soluble”. Under “MTAHFRPAVYDLPRDGHTVFRWEHPPQQATVELERLQRKQSLAAAFRVFARLGFDMGGAGHITVRDPGRPDHFWVNPVGVYFGHVRVRDLLLVNPEGAVIEGEGALNLAAFAIHAALHEAHPEVVAAAHAHSLYGKAWSSLGRLLDPLTQDACAFYERHGLFDNFSGVVLEASEGVRIAAALAGRKALILQNHGLLTVGETVEAAVWRFIAMDNAAQTQLLAEAAGTPRPIPHEVARHTARQVGTEFGGWFSFQPYRERIVREEPDFLDLEHHHHHH” stands “not soluble”.
